{"source": "patent US20050163796A1"}
{"target": "HLA-B*0702 on HLA-B*0702 transfected TAP- T2 cells (human)", "assay": "HLA-B*0702 stabilisation on T2-B*0702 cells, FACS with ME.1 mAb; concentration to reach 20% of maximal fluorescence relative to R10V", "conditions": "scale: ratio of concentrations, tested peptide / R10V reference"}
{"binder": "SPHPRISSEV (modifications not checked)", "note": "[S10EV]", "RA (relative affinity)": 1.11}
{"binder": "HPRISSEVHI (modifications not checked)", "note": "[H10HI]", "RA (relative affinity)": 3.7}
{"binder": "IPLGDARLVI (modifications not checked)", "note": "[I10VI]", "RA (relative affinity)": 2.33}
{"binder": "QPIQIAIAAL (modifications not checked)", "note": "[Q10AL]", "RA (relative affinity)": 6.5}
{"binder": "RPVVSTQLLL (modifications not checked)", "note": "[R10LL]", "RA (relative affinity)": 2.25}
{"binder": "KPPLPSVTKL (modifications not checked)", "note": "[K10KL]", "RA (relative affinity)": 3.55}
{"binder": "PPQGSQTHQV (modifications not checked)", "note": "[P10QV]", "RA (relative affinity)": 8.97}
{"binder": "TPKKIKPPL (modifications not checked)", "note": "[T9PL]", "RA (relative affinity)": 1.29}
{"binder": "APTKAKRRVV (modifications not checked)", "note": "[A10VV]", "RA (relative affinity)": 1.14}
{"binder": "LPLPPLDRL (modifications not checked)", "note": "[L9RL]", "RA (relative affinity)": 6.13}
{"binder": "LPPLDRLTL (modifications not checked)", "note": "[L9TL]", "RA (relative affinity)": 3.51}
{"target": "HLA-B*0702 on HLA-B*0702 transfected TAP- T2 cells (human)", "assay": "not given", "conditions": "not given"}
{"binder": "YPLASLRSLF (modifications not checked)", "note": "[Y10LF]", "RA (relative affinity)": 3.25}
{"target": "HLA-B*0702 on HLA-B*0702 transfected TAP- T2 cells (human)", "assay": "not given", "conditions": "scale: ratio of concentrations, tested peptide / R10V reference"}
{"binder": "GPHMPVYPQT (modifications not checked)", "note": "[G10QT]", "RA (relative affinity)": 22}
{"binder": "SPVLRLRPPV (modifications not checked)", "note": "[S10PV]", "RA (relative affinity)": 0.85}
{"binder": "QPPLYFVHQM (modifications not checked)", "note": "[Q10QM]", "RA (relative affinity)": 49}
{"binder": "MPVYPQTPT (modifications not checked)", "note": "[M9PT]", "RA (relative affinity)": 0.94}
{"binder": "AAISPVLRL (modifications not checked)", "note": "[A9RL]", "RA (relative affinity)": 15}
{"binder": "QPRSDTHVF (modifications not checked)", "note": "[Q9VF]", "RA (relative affinity)": 1.56}
